Reference: the DeepSol protein solubility set

Experiment: soluble on expression in E. coli; label from the status in PepcDB or PDB records

Sequence | soluble on expression in E. coli
MKKVEILKTSRPSSAGGAARPSTASPTHGAPKIAIKTRPVADDVAPTAATVIEPSQKAMKESVRFLTDFGEISDAISDLLTSSPNFNVISAIGPQGAGKSTLLSMLAGNNSRQMYREYVFRPVSREANEQSRHQTIQIDIYIVNHQIFLDCQPMYSFSIMEGLPKVRGGRFDDSTAMSDTLRLTAFLLYVSHTVLVVSETHYDKVIIDTLRVAEQIRPYLAIFRPKLAIDRKTNLVFIKTKASSIDLAPTVIREREELLRLSFQDSRWLKVSQEPFKTLIVLEEIRVRREHLFEEGDEPDEAASLNEFDEQIAELREELQKNREDFTVETAAMDEKKWLDMCREVIRDKTLHKTLKEYQRAMTDGVRTHFDNGFHAERDANKFFS | not soluble
MKKVLLFAVVFSCSMWANAQRVTWATEAGLSAIQRTGYGECWRPSTRLGISADYNVNNMFSMKSGLYYTFRGYSVNNGGTYSNGDATWIENVSQTRHFLQVPILAKFSIHSNNSTKFFFEIGSYIGYCIKNHIDSNPYYLTMPSSGWVEGYPGVGESAEGGSNQFLYQHARNFDWGMTSAVGIENRRWTVKLQYEMSLGKESKNDNIGVNYNSLTLSVGYKLNVKQ | not soluble
MKKVQTPLFQGITENEWNEMQNCSCMRQQSFEKNELIFRMGESVREIGIVLTGSVNIENVDLWGNKSLLSNISAGQVFAETYAFCQEPLMVNAVAAEYTNLLFLNLETLMQPRYKDTLWTDKIMQNLLRISIYKNLILSNRIFCTTPKTIRGRLLIYLSSQASKAESTVFQISFNRQELADYLNLDRSALSKELGKMRDEGILEFRKNQFVLHQLPE | not soluble
MKLAVIAANGQAGKAIVEEAVKRGHEVTAIVRSENKSQAESIIKKDLFELTKDDLTGFDAVISAFGAYTPDTLPLHSKSIELFNQLLAGTQTRFLVVGGAGSLYIDETKTTRLLDTPDFPEEFKPLAKAQADELDLLRTKNNLNWTFVSPAVDFIPDGEKTGNYILAGEIFTTNEKGISQISYADYAIGLVDELEKGHHIKERISLLEKLEHHHHHH | soluble
MKLGFVGAGRVGSTSAFTCLLNLDVDEIALVDIAEDLAVGEAMDLAHAAAGIDKYPKIVGGADYSLLKGSEIIVVTAGLARKPGMTRLDLAHKNAGIIKDIAKKIVENAPESKILVVTNPMDVMTYIMWKESGKPRNEVFGMGNQLDSQRLKERLYNAGARNIRRAWIIGEHGDSMFVAKSLADFDGEVDWEAVENDVRFVAAEVIKRKGATIFGPAVAIYRMVKAVVEDTGEIIPTSMILQGEYGIENVAVGVPAKLGKNGAEVADIKLSDEEIEKLRNSAKILRERLEELGY | soluble
MKLIVSGKNLEVTEGLREAVEKQISKLEKYFKPEVEAHVTLSVEKNRQIVEVTIPFNGVILRGEETNNDMYASIDIVGDKLERQVRKQKTKLERRKYSDSLKFQNIPDYHKEEQEPEIVKTKRFAIKPMSEEEAVLEMELLGHNFFVFQNGDSNEVNVVYKRKDGNYGLIEPEFLEHHHHHH | soluble
MKLKGKGIGKVVVEGEVIVSRKPLSFLGGVDPETGTITDPESDIKGESITGKILVFPKGKGSTVGSYILYALSKNGKGPKAIIVEEAEPIVTAGAIISGIPLITNVDISKLKTGMRVRINPQEGEVEILAEGNLLEHHHHHH | not soluble
MKLKSNNIYEKMNQYSVVGLSLAVIRDGKLDETAAFGTLESGTNRTVTIDSIFNSCSISKFITTILILTLSDLKIVHLDEDVNDRLTSWNIPTNLFTSQKKVTLRNLLSHQSGIIDPPNSFEHYLLAQGQPNMSELLAGKTLYCSVPIEVTYKPESEFHYSDANFCIIEILLEDITGKPFNLLLEESIFQPLQMKNSTIFSPEDIDKTDAFACGHNKDGTVTNEKYPFYPFAAASGIWTTPTDLSALVIEIIHSLQGKGKLKLSQKTVQDMISPQGCSKWTGLGVFLDDLNEDLQIYSLGWGVGFQCMMICYPYRGNGAIIMTNADLGVHQMEGIIGDVLKTLSL | not soluble
MKLLILFSLFAIFFGVIALDSPIPEFYSTGRSTRVPSHRHRIPRLGKREVPNFQADNVPEAGGRVRRYVGPPLKLVILI | not soluble
MKLLLHICCGPCAVYPVNVLREEGIYFEGLFYNPNIHPYDEFIRRKENVKKLSEIKNVPVKYMDDFSQEIWEKLGEDNEKRCNMCYALRIDKVAGYAKENGFDAFTTTLLVSPYQKHELIVELSKRAGEKYGIEFFYKDFRPGFRQGQQEAKELGLYRQKYCGCIISYREAEKLKSERKSK | soluble
MKLNRAIGVIDSGVGGLTVAKELIRQLPKERIIYLGDTARCPYGPRSREEVRQFTWEMTEHLLDLNIKMLVIACNTATAVVLEEMQKQLPIPVVGVIHPGSRTALKVTNTYHVGIIGTIGTVKSGAYEEALKSINNRVMVESLACPPFVELVESGNFESEMAYEVVRETLQPLKNTDIDTLILGCTHYPILGPVIKQVMGDKVQLISSGDETAREVSTILYHSKMLNEGEEQSDHLFLTTGKIGLFKEIASKWFGQPIENVKHIHLEKE | not soluble
MKLSESRGETEKHRRQQHFEHELKNMISSLTHMGGDKAGPSQYDEEEDGIRVITLSGSNLGATMKTELDNNHGDRDQNGDHELDFLSTYVNSNFQAVNNSIMIGAKYETHDPGVHLDISGDVEKPSVKIPARSSRGKKGKTPARSDRRESEHTN | soluble
MKLSLVLTARDDGARRLLADTQRQLDRTAKSRAQLERQSHTYALTGIRSEKQIQREIMLTQAAFNRLARSGKASQNDLARAAVATRNRIRELNAELKQGTGFADKMGKIGRFGAAAVAGGAAAYTVLKPAMDNRKQLDENINRVSRQAFIEDNSKSAAWIATEGAQQIKDLALELVEKNGGTHDKALDLISGMMTTGLNFAQTKNEAQAAYAFALASEGSGEDTAKLIKTLKDGGMSGKDLQLGLEHVLQSGLDGTFEVRDMVRELPSLLSAAQQAGMNGVGGLDYLLSLLQSAANKSGSPAEAATNVQNLLSKTLSPDTIGRLKKMANPNDPKKGVDWIGSVVQGKQNGENAVQVLSRLADAMLVKDKQYQDYKKRAAAGDKTAAEQANMLKGALLAQLLPDLQAKQGLLAATDMTQIREYMASLAGVTLDNGKIAKNNEARMLSAAAQQEQQESLAMLRESLTGTLVDMETSFKKLAAEYPNATLALQALTTAATAASAAMLLTAGGGKGAGFLKDVGSKALGWGKASAGGVAAGATAAGGKLLSWGKSAGSGLMNNPALVKRAGLLGMLLYSESLGDGTLPKGLRGTKTTPEMINRLKNNGIRFEPAPKREQARGGVPQYLAAPSAQPTDKMLSPLFSTQTAAYQAAIQQQTAAYQAALAQDTAAVTTGLAQVQSAMASASQTINTNVSLNIDGRVIANEVSRYQVAMFGRGAGQ | not soluble
MKLTLWTYEGPPHVGAMRVATAMKDLQLVLHGPQGATYADLLFTMIERRNARPPVSFSTFEASHMGTDTAILLKDALAAAHARYKPQAMAVALTCTAELLQDDPNGISRALNLPVPVVPLELPSYSRKENYGADETFRALVRALAVPMERTPEVTCNLLGATALGFRHRDDVAEVTKLLATMGIKVNVCAPLGASPDDLRKLGQAHFNVLMYPETGESAARHLERACKQPFTKIVPIGVGATRDFLAEVSKITGLPVVTDESTLRQPWWSASVDSTYLTGKRVFIFGDGTHVIAAARIAAKEVGFEVVGMGCYNREMARPLRTAAAEYGLEALITDDYLEVEKAIEAAAPELILGTQMERNIAKKLGLPCAVISAPVHVQDFPARYAPQMGFEGANVLFDTWVHPLVMGLEEHLLTMFREDFEFHDAAGASHHGGKAVAREESPVAPADLAPAATSDTPAAPSPVVVTQASGEIRWMPEAERELRKIPFFVRGKAKRNTELYAAHKGVCDITVETLYEAKAHYAR | soluble
MKLTVKRSVFLQELQTVQRAISSKTTIPILTGVKIVLSEDGLSLTGSNADISIESFLSKDDEKAQMTIERTGSIVLQSRFFGEIIRKLPEDMFTMEVLDNNQVAITSGKADFTVNGLDADNYPHLPVIDTQNQMKLPVHLLTKIISETGFAVSMHESRPILTGVHFILENQKLLAVATDSHRLSQRVIPTEQAVEDFNIVIPGKSLTELSRSLTNEEEMVEISIMENQVLFKTETMYFYSRLLEGNYPDTNRLIPTSHNTQIEFYVPELLSAIERASLLSHEGRNNIVRLSISPDSVVLYGNSPEIGKVEEALNYENVSGEALDISFNPDYMKDALRAFGDMNITVKFLSPIRPFTLEPTETELDFIQLITPVRTN | not soluble
MKLVDALGKPCPIPVIETKKALAELGLAGGTIEVLVDNEVAIENLKKLATKKQATLTAKQIEATVFSVKITVPEEATQQTSQSATDLVITIGSDQLGTGDEQLGRLLMKSYLQSLSEAETVPTQLLFFNRGAFLTNQAANTLADLQQLAEKGTTIQTCGACLDFYHLTDTLAIGSITNMYEIVETMNQAAKVITLLEHHHHHH | soluble
MKLYSILVFHKNVDTSDVKLFKSECDLSSFSFFQRGSVQEFMTFTAKLLVERSGLGARSSVKENEYLVHCYVRNDGLSAVCVTDAEYQQRVAMSFLGRVLDDFTTRVPATQWPGIRSDKDCSYTGLKDLLEKWQNPREADPMTRVQEEVEETKMVMHNTIQSVLDRGEKLDDLVKKSENLSDQSKMFYTSARKMNKCCNYV | not soluble
MKMEVPQVDLPLEVLAWTKVTEDILNIYKQSCRLQACIFAICTEGTMKVSINLLEYEVHPNDLITLLPGTIIQFREKAEKVSLCFAGFSAKCIGHINLLTTIGNAYPKLIEQPIIPLSENIADYLKEYFALLSHASCDESFKMDSKLADLSLQTILTSIQLMYRNYSGNNHSNRKKEICRKLIQLITEHYKDQRCAQFYADQLGISLQHLSTTVKQVTGKSVLDTIAYIVIIDAKAQLKGTDMTIQEIAYSLNFPNPSFFCKFFRRHVGMSPLEFRNS | not soluble
MKMKILGISFGTKNGNNDTMCKVALKGAKEAGAEVEFIQMSSINIKHCTGCCACVKTLLSGKGSMCVLKDDFEWLLDKMKDADGIVVSDPIFEEGASGLFHTIMDRFGPRADRGNNIIGTKVAEAIGGKIPDSRMLNDKVISFMGIGGSDWGTRVQCEHAMLALIPMWKVIDNAWFPWAKELVMDDTRLVQVHQIGLNIVEAAKDFEKASYQGEEGVCPHCHNRLFYLEPGTKKAICALCGIVGELDTISGKTIFSFPEEQLGHAHDTLPGKFIHGDDIKKMEGHYAEVRKTQEFKERKTSYNFIETLTKEKQAGLEHHHHHH | not soluble
MKNEKIVVLYGGDSPEREVSLKSGKAVLDSLISQGYDAVGVDASGKELVAKLLELKPDKCFVALHGEDGENGRVSALLEMLEIKHTSSSMKSSVITMDKMISKEILMHHRMPTPMAKFLTDKLVAEDEISFPVAVKPSSGGSSIATFKVKSIQELKHAYEEASKYGEVMIEQWVTGKEITVAIVNDEVYSSVWIEPQNEFYDYESKYSGKSIYHSPSGLCEQKELEVRQLAKKAYDLLGCSGHARVDFIYDDRGNFYIMEINSSPGMTDNSLSPKSAAAEGVDFDSFVKRIIEQAQ | not soluble
MKNENENEICFIAGVGDSNGYGWGIAKELSKRNVKVIFGVWPPVYNIFIKNLESGKFDKDMIINNDNSKRMQILDVLPLDAGFDNYDDIDEDTKNNKRYNNLKNYSIEEVANLIYNKYGKISMLVHSLANGREVQKSLLDTSRDGYLDAISKSSYSLISLCKHFCKFMNSGGSVVSLTYQASQKVVPGYGGGMSSAKAALESDTRVLAYYLGRKYNIRINTISAGPLKSRAATAINKFNNNQKNNMNSSGETDKQNYSFIDYAIDYSEKYAPLKKKLLSTDVGSVASFLLSKESSAVTGQTIYVDNGLNIMFGPDDLFQSSDS | soluble
MKNFEWNTSFSFAYMNNEVKHLYGEYENVLDANGNIVGSKEKDEYGKWWIGRPISAIWDYRVTGIWQPDEIEEAKKVGQLPGDPKVANNYTEDDIISSDGSRIPVYNDKDKEFLGQTTSPYILSMRNNFTILKNIDFSFNLYSCIGSKMKDTSYLNQVNASEIDYGLNQSIKEYWTPEHQSNTYARLNSKGPTGVNSPARYIDRSFIRLENISIGYTFPKSIVSRWGLSNLKVYGTIRNAALWTMSHWKLNDIETGGLAPRTYSLGINVTL | not soluble
